Consider three molecules from US20250034266A1.

As a reminder, the IC50 is the concentration needed to halve the response being measured. The term EC50 denotes the concentration that produces a half-maximal response.

Substitutions are numbered along the chain they refer to. Where two headings read alike, the source gives them in different places.

The target of test [1] is human CCR8 (human) (UniProt P51685). Briefly: FACS, competition with AF647-human CCL1 on CHO-K1-human CCR8 cells. Background: In flow cytometry, cells or beads pass a laser one at a time.
Sequence of human CCR8 (human) (P51685 whole entry): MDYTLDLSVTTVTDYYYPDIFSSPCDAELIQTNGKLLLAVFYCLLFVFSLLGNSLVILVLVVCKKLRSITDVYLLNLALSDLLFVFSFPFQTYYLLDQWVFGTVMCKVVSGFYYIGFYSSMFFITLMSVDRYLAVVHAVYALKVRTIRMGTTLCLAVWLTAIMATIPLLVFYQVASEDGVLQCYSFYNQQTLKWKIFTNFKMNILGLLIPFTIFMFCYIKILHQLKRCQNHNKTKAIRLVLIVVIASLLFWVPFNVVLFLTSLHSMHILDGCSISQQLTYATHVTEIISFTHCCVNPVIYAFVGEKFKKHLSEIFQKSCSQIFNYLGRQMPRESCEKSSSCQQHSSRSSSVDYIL
For test [2], the target named is cynomolgus CCR8 (cynomolgus) (UniProt G7NYJ2). In words: FACS on ExpiCHO-S-cynomolgus CCR8 cells.
Sequence of cynomolgus CCR8 (cynomolgus) (G7NYJ2 entry or part of it): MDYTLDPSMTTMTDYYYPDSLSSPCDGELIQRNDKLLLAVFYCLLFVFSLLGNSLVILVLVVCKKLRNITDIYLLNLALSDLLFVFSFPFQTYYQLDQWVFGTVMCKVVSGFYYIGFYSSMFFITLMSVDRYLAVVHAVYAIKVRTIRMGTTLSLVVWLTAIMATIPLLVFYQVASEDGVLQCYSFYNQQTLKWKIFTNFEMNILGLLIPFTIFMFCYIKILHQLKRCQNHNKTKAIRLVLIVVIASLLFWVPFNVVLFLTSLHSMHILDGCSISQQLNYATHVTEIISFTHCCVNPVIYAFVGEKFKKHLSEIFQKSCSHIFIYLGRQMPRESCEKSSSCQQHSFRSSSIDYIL
The target is the same in test [3]. Briefly: FACS on cynomolgus CCR8 cells.
The target of a further test is T1, human CCR1 (human) (UniProt P32246).
T1 sequence (looked up): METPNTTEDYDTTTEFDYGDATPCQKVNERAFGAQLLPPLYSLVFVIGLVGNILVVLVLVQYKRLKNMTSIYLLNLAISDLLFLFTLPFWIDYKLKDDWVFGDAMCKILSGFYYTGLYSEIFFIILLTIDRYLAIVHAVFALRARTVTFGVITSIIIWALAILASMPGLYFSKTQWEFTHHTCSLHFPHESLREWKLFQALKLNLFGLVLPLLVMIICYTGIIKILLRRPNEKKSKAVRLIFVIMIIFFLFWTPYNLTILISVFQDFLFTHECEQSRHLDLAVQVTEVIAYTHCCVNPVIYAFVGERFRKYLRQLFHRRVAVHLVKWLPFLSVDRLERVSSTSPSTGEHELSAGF
In words: FACS on ExpiCHO-S-human CCR1 cells.

Test [4] concerns the target cynomolgus CCR8 (cynomolgus) (UniProt G7NYJ2). Briefly: FACS on HEK293-Cynomolgus CCR8 cells.
The target in test [5] is human CCR8 (human) (UniProt P51685). Briefly: FACS on HEK293-human CCR8 cells.
For test [6] the target is unchanged. Briefly: FACS, competition with AF647-human CCL1 on CHO-K1-human CCR8 cells. This is another data set of the same source.
The target is the same in test [7]. Briefly: FACS on CHO-K1-human CCR8 cells.
The target is the same in test [8]. Briefly: FACS, competition with CCL1 on CHO-K1-human CCR8 cells.
Test [9] shares this target. In words: FACS on HEK293-human CCR8 cells. The source holds these as a separate data set.
For test [10] the target is unchanged. Briefly: FACS on CHO-K1-human CCR8 cells. This is another data set of the same source.
Test [11] has as its target cynomolgus CCR8 (cynomolgus) (UniProt G7NYJ2). Briefly: FACS on HEK293-cynomolgus CCR8 cells.
In test [12] the target is human CCR8 (human) (UniProt P51685). Briefly: FACS on HEK293-human CCR8 cells. This is another data set of the same source.
The target is the same in test [13]. Briefly: FACS on HEK293-human CCR8 cells. This is another data set of the same source.
In test [14] the target is cynomolgus CCR8 (cynomolgus) (UniProt G7NYJ2). Briefly: FACS on HEK293-cynomolgus CCR8 cells. The source holds these as a separate data set.
Test [15] deals with human CCR8 (human) (UniProt P51685). Briefly: FACS, competition with AF647-human CCL1 on CHO-K1-human CCR8 cells. This is another data set of the same source.
Test [16] shares this target. In words: FACS, competition with CCL1 on CHO-K1-human CCR8 cells. The source holds these as a separate data set.
Test [17] shares this target. In words: FACS on HuT78 cells (endogenous human CCR8).
For test [18] the target is unchanged. Briefly: cell-based or functional assay.
The target of test [19] is human CCR8 tagged with ProLink (PK) (human) (UniProt P51685). In words: cell-based or functional assay.
Sequence of human CCR8 tagged with ProLink (PK) (human) (P51685 whole entry): as the sequence (P51685 whole entry) above
In test [20] the target is human CCR8 (human) (UniProt P51685). In words: cell-based or functional assay. The source holds these as a separate data set.
For test [21] the target is unchanged. In words: FACS on CHO-K1-human CCR8 cells. The source holds these as a separate data set.
The target is the same in test [22]. Briefly: FACS competition with 4 nM AF647-human CCL1 on human CCR8 cells.
Test [23] has the same target. Briefly: FACS, competition with AF647-human CCL1 on HEK293-human CCR8 cells.
Test [24] shares this target. Briefly: FACS, competition with AF647-human CCL1 on CHO-K1-human CCR8 cells. The source holds these as a separate data set.
Another test addresses T2, human CCR4 (human) (UniProt P51679).
T2 sequence (looked up): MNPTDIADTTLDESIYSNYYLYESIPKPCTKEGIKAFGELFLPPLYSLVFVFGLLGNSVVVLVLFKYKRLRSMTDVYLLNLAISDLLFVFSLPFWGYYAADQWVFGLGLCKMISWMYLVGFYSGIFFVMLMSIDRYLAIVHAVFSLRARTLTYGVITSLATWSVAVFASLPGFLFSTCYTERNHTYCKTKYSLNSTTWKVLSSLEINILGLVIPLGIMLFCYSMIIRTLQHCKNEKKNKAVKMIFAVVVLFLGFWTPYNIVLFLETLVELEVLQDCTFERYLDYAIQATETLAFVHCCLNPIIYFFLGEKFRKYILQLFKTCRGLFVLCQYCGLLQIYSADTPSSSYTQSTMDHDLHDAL
In words: FACS on ExpiCHO-S-human CCR4 cells.

The target in test [25] is cynomolgus CCR8 (cynomolgus) (UniProt G7NYJ2). In words: FACS on HEK293-cynomolgus CCR8 cells. This is another data set of the same source.
The target of test [26] is human CCR8 (human) (UniProt P51685). In words: cell-based or functional assay. This is another data set of the same source.
Test [27] addresses cynomolgus CCR8 (cynomolgus) (UniProt G7NYJ2). In words: FACS on HEK293-cynomolgus CCR8 cells. The source holds these as a separate data set.
Test [28] has as its target human CCR8 (human) (UniProt P51685). Briefly: FACS on HEK293-human CCR8 cells. The source holds these as a separate data set.
For test [29], the target named is cynomolgus CCR8 (cynomolgus) (UniProt G7NYJ2). In words: FACS on HEK293-cynomolgus CCR8 cells. The source holds these as a separate data set.
For test [30], the target named is human CCR8 (human) (UniProt P51685). Briefly: FACS, competition with AF647-human CCL1 on CHO-K1-human CCR8 cells. The source holds these as a separate data set.
The target is the same in test [31]. In words: FACS on HuT78 cells (endogenous human CCR8). The source holds these as a separate data set.

B1: 433H monoclonal antibody (BD Biosciences, #644092) (antibody, from another filing, mouse IgG2a, V domains shown)
VH: EVQLVETGGGLVQPKGSLRLSCAASGFPFNTFAMNWVRQAPGKGLEWLARIRSKSNNYATYYADSVKDRFTISRDDSRRMLYLLMNNVKFEDTAIYYCVRGKENNYGYAMDYWGQGTSVTVSS
VL: DIVMTQAAPSVPVTPGESVSISCRSSQSLLHSNGNTYLYWFLQRPGQSPQLLIYRMSNLASGVPDRFSGSGSGTAFTLRISRVEAEDVGVYYCMQHLEYPFTFGIGTKLELKR
With B1, the IC50 with human CCR8 (human) [1] turned out to be 0.243 nM; in the test with human CCR8 (human) [6] it was 0.193 nM; with human CCR8 (human) [8], 0.178 nM; in the test with human CCR8 (human) [15] it was 0.171 nM; in the test with human CCR8 (human) [16], 0.114 nM; with human CCR8 (human) [23] it was 0.335 nM. The figures for the IC50 with human CCR8 (human) [24] and with human CCR8 (human) [30] were 0.198 nM and 0.143 nM, respectively. Besides, the Max Inhibition (%) with human CCR8 (human) [1] is 96%; in the test with human CCR8 (human) [6], 99.1%; in the test with human CCR8 (human) [8], 99.6%; in the test with human CCR8 (human) [15], 98.7%; in the test with human CCR8 (human) [16], 100%; in the test with human CCR8 (human) [23], 98.8%. Further, the Max Inhibition (%) in the test with human CCR8 (human) [24] was 99.6%; with human CCR8 (human) [30], 99.8%. Besides, the Max MFI stood at 27 MFI in [2]; 133 MFI with human CCR1 (human); 2010 MFI in [4]; 3890 MFI in the test with human CCR8 (human) [5]; 215000 MFI in the test with human CCR8 (human) [7]; 5940 MFI in the test with human CCR8 (human) [9]. Moreover, the Max MFI is 814000 MFI in the test with human CCR8 (human) [10]; 2340 MFI in test [11]; 2780 MFI with human CCR8 (human) [12]; 2020 MFI with human CCR8 (human) [13]; 802 MFI in [14]; 60800 MFI with human CCR8 (human) [17]. Further, the Max MFI with human CCR8 (human) [21] is 4920 MFI; in the test with human CCR4 (human) it was 6.1 MFI; in [25], 1240 MFI; in test [27], 1.72e+06 MFI; in the test with human CCR8 (human) [28], 2810 MFI; in test [29], 648000 MFI. The Max MFI in the test with human CCR8 (human) [31] is 31900 MFI. In addition, the results for the Binding Ratio (GFP + MFI)/(GFP - MFI) (in test [3]; with human CCR8 (human) [21]) were 7.9 and 158, respectively. The EC50 with human CCR8 (human) [5] worked out at 0.0878 nM; with human CCR8 (human) [7], 0.0699 nM; with human CCR8 (human) [9], 0.215 nM; in the test with human CCR8 (human) [10], 0.0823 nM; with human CCR8 (human) [12], 0.197 nM; in the test with human CCR8 (human) [13], 0.117 nM. The EC50 in test [14] was determined as 9.08 nM; with human CCR8 (human) [17], 0.123 nM; with human CCR8 (human) [21], 0.124 nM; in test [27] it was 19.4 nM; in the test with human CCR8 (human) [28], 0.119 nM. In addition, the IC50, inhibition of CCL1 induced β-Arrestin recruitment amounted to 0.89 nM with human CCR8 (human) [18], 1.06 nM with human CCR8 (human) [20] and 0.23 nM with human CCR8 (human) [26]. Besides, the Max Inhibition (%), CCL1 induced β-Arrestin recruitment with human CCR8 (human) [18] was 92.5%; in the test with human CCR8 (human) [20], 89.9%; with human CCR8 (human) [26], 92.6%. The same molecule yielded an IC50, inhibition of CCL1 induced β-Arrestin recruitment, CHO-K1-human CCR8 β-Arrestin cells in [19] of 6.54 nM. In test [19], this molecule returned a Max Inhibition (%), CCL1 induced β-Arrestin recruitment, CHO-K1-human CCR8 β-Arrestin cells of 80.3%. Further, in the test with human CCR8 (human) [20], the IC50, blocking of CCL1 induced cell migration turned out to be 1.25 nM. The molecule further registered an IC50, blocking of cell migration induced by CCL1 in the test with human CCR8 (human) [20] of 0.278 nM. In addition, the Max Inhibition (%), cell migration induced by CCL1 in the test with human CCR8 (human) [20] came to 104%. Further, the Max inhibition (%), CCL1 induced cell migration with human CCR8 (human) [20] stood at 117%. This molecule had an Inhibition Rate (%) in the test with human CCR8 (human) [22] of 100%.

B2: Hu149-11G1x (antibody, V domains shown, not shown: a dimerising Fc or GST)
VH: EVQLVESGGGLVQPGGSLKLSCAASGFTFNTYAMNWVRQASGKGLEWVGRIRSKSNFYATAYAASVKGRFTISRDDSKNTAYLQMNSLKTEDTAVYYCTRGREYGSSYAMDYWGQGTLVTVSS
VL: DIVMTQSPLSLPVTPGEPASISCRSSKSLLHSNANTYLYWFLQKPGQSPQLLIYRMSNLASGVPDRFSGSGSGTDFTLKISRVEAEDVGVYYCMQHLEYPLTFGGGTKVELK
In the test with human CCR8 (human) [20], B2 yielded an EC50, ADCC reporter, F variant CD16a/NFAT-Jurkat, target CHO-K1-human CCR8 cells of 0.00351 nM; an EC50, ADCC reporter, F variant CD16a/NFAT-Jurkat, target HuT78 cells of 0.0046 nM; an EC50, ADCC reporter, V variant CD16a/NFAT-Jurkat, target CHO-K1-human CCR8 cells of 0.00487 nM; an EC50, ADCC reporter, V variant CD16a/NFAT-Jurkat, target HuT78 cells of 0.00559 nM. In the test with human CCR8 (human) [20], this molecule returned an EC50, ADCC with human PBMCs, target CHO-K1-human CCR8 cells of 0.000384 nM; a Max (RLU), ADCC reporter, F variant CD16a/NFAT-Jurkat, target CHO-K1-human CCR8 cells of 8.34e+06 RLU; a Max (RLU), ADCC reporter, F variant CD16a/NFAT-Jurkat, target HuT78 cells of 1.51e+07 RLU; a Max (RLU), ADCC reporter, V variant CD16a/NFAT-Jurkat, target CHO-K1-human CCR8 cells of 4.09e+06 RLU. In the test with human CCR8 (human) [20], this molecule displayed a Max (RLU), ADCC reporter, V variant CD16a/NFAT-Jurkat, target HuT78 cells of 9.06e+06 RLU and a Max specific lysis (%), ADCC with human PBMCs, target CHO-K1-human CCR8 cells of 44.2%.

B3: Hu149-4 (antibody, human IgG1, V domains shown)
VH: B2 VH with A61Y, E103D
VL: B2 VL
As to B3, the Max MFI in the test with human CCR4 (human) came out at 44 MFI.
